Values belong to the molecule of their own block, whether it stands above or below them.
Molecular target: MAP kinase (ERKs) of PC12 cells

Gal4-Elk-1 dependent luciferase activity induced by Raf BxB in PC12 cells (% of maximal levels): 90
Molecule: MKP-2 (rat mitogen-activated protein kinase phosphatase-2), full length, expressed from CMV-MKP-2 in PC12 cells

Gal4-Elk-1 dependent luciferase activity induced by Raf BxB in PC12 cells (% of maximally stimulated levels): > 60
B1: MKP-1, full length, expressed from CMV-MKP-1 in PC12 cells (enzyme)
chain: MVMEVGILDAGGLRALLREGAAQCLLLDCRSFFAFNAGHIAGSVNVRFSTIVRRRAKGAMGLEHIVPNAELRGRLLAGAYHAVVLLDERSASLDGAKRDGTLALAAGALCREARSTQVFFLQGGYEAFSASCPELCSKQSTPTGLSLPLSTSVPDSAESGCSSCSTPLYDQGGPVEILSFLYLGSAYHASRKDMLDALGITALINVSANCPNHFEGHYQYKSIPVEDNHKADISSWFNEAIDFIDSIKDAGGRVFVHCQAGISRSATICLAYLMRTNRVKLDEAFEFVKQRRSIISPNFSFMGQLLQFESQVLAPHCSAEAGSPAMAVLDRGTSTTTVFNFPVSIPVHPTNSALNYLKSPITTSPSC

From patent publication US5998188
